Data on two substances can be found in article PMC7955051.

Assay [1] addresses RSV IN 1–278 (Rous sarcoma virus integrase, C-terminal truncation of 8 amino acids) (Rous sarcoma virus (Prague A)). The assay can be described thus: cryo-EM structure.
Assay [2] shares this target. The assay can be described thus: SEC. Background: Size exclusion chromatography separates by hydrodynamic size, large species first.
The target of assay [3] is RSV IN S262R (recombinant) (Rous sarcoma virus (Prague A)). Briefly: not stated; CSC assembly with recombinant IN mutants (Supplementary Fig. 11).

For “RSV IN 1–278 (Rous sarcoma virus integrase, C-terminal truncation of 8 amino acids) (domain or fragment)”, the stoichiometry N in assay [1] and in assay [2] was 8 throughout.

For RSV IN S262R (recombinant) (enzyme), the stoichiometry N in assay [3] is 8.

Usually stoichiometry N stands for a count of units in the complex or per binding partner.
